Target: the molecule itself
Assay: small angle X-ray scattering (SAXS); hHP1β (2–185) at 1.0, 2.0 and 5.0 mg/mL, 283 K; 20 mM sodium phosphate pH 6.5, 50 mM NaCl, 2 mM DTT; MW from forward scattering against bovine serum albumin

B1: full-length human Heterochromatin Protein 1β, hHP1β (2–185) (natural protein)
chain: not shown
notes: The His-tag is TEV-protease-cleavable; NMR samples were 15N-perdeuterated; also called full-length hHP1β; source: pET16b expression vector (Novagen); additional size-exclusion chromatography on Superdex200 for SAXS and DLS samples
stoichiometry N: 2

— PMC3621757, “Structural Plasticity in Human Heterochromatin Protein 1β” (PLoS ONE, 2013)
